Assay results reported in patent US20260209358A1.

Experiments:
[1] = target: T1, CD37 on CD37+ target tumor cells (Daudi or Ramos cells) (UniProt P11049); assay: cell-based or functional assay
T1 sequence (looked up): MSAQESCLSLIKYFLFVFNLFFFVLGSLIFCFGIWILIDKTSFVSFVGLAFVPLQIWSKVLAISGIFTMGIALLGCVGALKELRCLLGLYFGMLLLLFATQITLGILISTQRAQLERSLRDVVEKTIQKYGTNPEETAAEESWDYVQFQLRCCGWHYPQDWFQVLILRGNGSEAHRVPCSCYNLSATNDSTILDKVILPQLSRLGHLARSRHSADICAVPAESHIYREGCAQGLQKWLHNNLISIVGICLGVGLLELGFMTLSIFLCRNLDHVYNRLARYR

[2] = target: hNKp46-His (extracellular domain of hNKp46 with a C-terminal polyhistidine tag) (human) (UniProt O76036); assay: BLI (Octet RED96), hNKp46-His on Ni-NTA biosensors, MB in solution, 1:1 fit
Chain of UniProt O76036 (O76036 22-258): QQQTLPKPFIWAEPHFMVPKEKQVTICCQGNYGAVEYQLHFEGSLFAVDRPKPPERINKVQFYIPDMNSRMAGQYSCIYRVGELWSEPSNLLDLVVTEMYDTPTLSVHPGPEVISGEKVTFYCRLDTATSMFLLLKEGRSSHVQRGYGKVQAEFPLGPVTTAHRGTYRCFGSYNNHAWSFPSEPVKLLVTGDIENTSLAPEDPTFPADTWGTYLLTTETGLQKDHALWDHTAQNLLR

B1: 016-H5L2 IgG (parent CD37 IgG) (antibody, V domains shown)
VH: EVQLVESGGGLVQPGGSLRLSCAASGFSLSNYNMGWVRQAPGKGLEWVSVIDASGTTYYATWAKGRFTISRDNSKNTLYLQMNSLRAEDTATYYCARELLYFGSSYYDLWGQGTLVTVSS
VL: DVVMTQSPSTLSASVGDRVTITCQASQNIDSNLAWYQQKPGKAPKFLIYYASNLPFGVPSRFKGSGSGTEFTLTISSLQPDDFATYYCQSADVGSTYVAAFGGGTKVEIK
[1]
  EC50 of ADCC (calcein release) on Ramos cells with primary human NK cells: 8.34 pM
  EC50 of ADCP on Ramos cells with THP-1 effector cells: 21.4 pM

B2: 016-H5L2 × NKp46-2 H1L1 CD37/NKp46 bispecific MB (protein, part only; not given: Fab constants, linkers, ferritin, scFc, not shown: another chain or arm of the molecule; large carriers; small tags and cut ends)
VH 1: EVQLVESGGGLVQPGGSLRLSCAASGFSLSNYNMGWVRQAPGKGLEWVSVIDASGTTYYATWAKGRFTISRDNSKNTLYLQMNSLRAEDTATYYCARELLYFGSSYYDLWGQGTLVTVSS
VL 1: DVVMTQSPSTLSASVGDRVTITCQASQNIDSNLAWYQQKPGKAPKFLIYYASNLPFGVPSRFKGSGSGTEFTLTISSLQPDDFATYYCQSADVGSTYVAAFGGGTKVEIK
VH 2: QVQLQESGPGLVKPSQTLSLTCTVSGYSISSDYAWNWIRQPPGKGLEWIGYITYSGSTSYNPSLESRVTISRDTSKNQFSLKLSSVTAADTAVYYCARGGYYGSSWGVFAYWGQGTLVTVSS
VL 2: DIQMTQSPSSLSASVGDRVTITCRVSENIYSYLAWYQQKPGKAPKLLVYNAKTLAEGVPSRFSGSGSGTDFTLTISSLQPEDFATYYCQHHYGTPWTFGGGTKVEIK
modifications: The variable domains sit in single-chain Fabs fused to human ferritin light chain. The NKp46 chain also carries a C-terminal scFc. The chains form a self-assembled multivalent nanocage.
[2]
  Kd: < 1 pM
  koff: < 1e-07 s⁻¹
  kon: 1.25e+06 M⁻¹ s⁻¹
[1]
  EC50 of ADCC (calcein release) on Ramos cells with primary human NK cells: 2.91 pM

B3: 016-H5L2 × NKp46 09 CD37/NKp46 bispecific MB (protein, part only; not given: Fab constants, linkers, ferritin, scFc, not shown: another chain or arm of the molecule; large carriers; small tags and cut ends)
VH 1: EVQLVESGGGLVQPGGSLRLSCAASGFSLSNYNMGWVRQAPGKGLEWVSVIDASGTTYYATWAKGRFTISRDNSKNTLYLQMNSLRAEDTATYYCARELLYFGSSYYDLWGQGTLVTVSS
VL 1: DVVMTQSPSTLSASVGDRVTITCQASQNIDSNLAWYQQKPGKAPKFLIYYASNLPFGVPSRFKGSGSGTEFTLTISSLQPDDFATYYCQSADVGSTYVAAFGGGTKVEIK
VH 2: EVQLQQSGAEVKKPGSSVKVSCKTSGYTFTEYSMHWVRQAPGKSLEWFGGISPNSGGTSYNQKFKGRATLTVDKSSSTAYMELSSLRSEDTAVYYCARRDFHSSFDYWGQGTTVTVSS
VL 2: DIVMTQSPATLSLSPGERATLSCRASQSISDYLHWFQQKPHESPRLLIKYASQSISGIPARFSGSGSGSDFTLTISSLEPEDFAVYYCQNGHSFPLTFGPGTKVDIK
modifications: The variable domains sit in single-chain Fabs fused to human ferritin light chain. The NKp46 chain also carries a C-terminal scFc. The chains form a self-assembled multivalent nanocage.
[2]
  Kd: < 1 pM
  koff: < 1e-07 s⁻¹
  kon: 1.06e+06 M⁻¹ s⁻¹
[1]
  EC50 of ADCC (calcein release) on Ramos cells with primary human NK cells: 2.72 pM

B4: 016-H5L2 × NKp46-1 H1L1 CD37/NKp46 bispecific MB (protein, part only; not given: Fab constants, linkers, ferritin, scFc, not shown: another chain or arm of the molecule; large carriers; small tags and cut ends)
VH 1: EVQLVESGGGLVQPGGSLRLSCAASGFSLSNYNMGWVRQAPGKGLEWVSVIDASGTTYYATWAKGRFTISRDNSKNTLYLQMNSLRAEDTATYYCARELLYFGSSYYDLWGQGTLVTVSS
VL 1: DVVMTQSPSTLSASVGDRVTITCQASQNIDSNLAWYQQKPGKAPKFLIYYASNLPFGVPSRFKGSGSGTEFTLTISSLQPDDFATYYCQSADVGSTYVAAFGGGTKVEIK
VH 2: QVQLVQSGAEVKKPGSSVKVSCKASGYTFSDYVINWVRQAPGQGLEWMGEIYPGSGTNYYNEKFKAKATITADKSTSTAYMELSSLRSEDTAVYYCARRGRYGLYAMDYWGQGTTVTVSS
VL 2: DIQMTQSPSSLSASVGDRVTITCRASQDISNYLNWYQQKPGKAPKLLIYYTSRLHSGVPSRFSGSGSGTDFTFTISSLQPEDIATYFCQQGNTRPWTFGGGTKVEIK
modifications: The variable domains sit in single-chain Fabs fused to human ferritin light chain. The NKp46 chain also carries a C-terminal scFc. The chains form a self-assembled multivalent nanocage.
[2]
  Kd: < 1 pM
  koff: < 1e-07 s⁻¹
  kon: 2.15e+06 M⁻¹ s⁻¹
[1]
  EC50 of ADCC (calcein release) on Ramos cells with primary human NK cells: 1.2 pM
  EC50 of apoptosis (Annexin-V+ cells, flow cytometry) on Daudi cells: 102 pM

B5: 016-H5L2 × NKp46-4 H1L2 CD37/NKp46 bispecific MB (protein, part only; not given: Fab constants, linkers, ferritin, scFc, not shown: another chain or arm of the molecule; large carriers; small tags and cut ends)
VH 1: EVQLVESGGGLVQPGGSLRLSCAASGFSLSNYNMGWVRQAPGKGLEWVSVIDASGTTYYATWAKGRFTISRDNSKNTLYLQMNSLRAEDTATYYCARELLYFGSSYYDLWGQGTLVTVSS
VL 1: DVVMTQSPSTLSASVGDRVTITCQASQNIDSNLAWYQQKPGKAPKFLIYYASNLPFGVPSRFKGSGSGTEFTLTISSLQPDDFATYYCQSADVGSTYVAAFGGGTKVEIK
VH 2: QVQLVQSGAEVKKPGASVKVSCKASGYTFTSFTMHWVRQAPGQGLEWIGYINPSSGYTEYNQKFKDRVTITADKSTSTAYMELSSLRSEDTAVYYCVRGSSRGFDYWGQGTLVTVSS
VL 2: DIQMTQSPSSLSASVGDRVTITCRASENIYSNLAWFQQKPGKAPKLLVYAATNLADGVPSRFSGSGSGTDYTLTISSLQPEDFATYYCQHFWGTPRTFGGGTKVEIK
modifications: The variable domains sit in single-chain Fabs fused to human ferritin light chain. The NKp46 chain also carries a C-terminal scFc. The chains form a self-assembled multivalent nanocage.
[2]
  Kd: < 1 pM
  koff: < 1e-07 s⁻¹
  kon: 1.67e+06 M⁻¹ s⁻¹
[1]
  EC50 of ADCC (calcein release) on Ramos cells with primary human NK cells: 3.73 pM
  EC50 of apoptosis (Annexin-V+ cells, flow cytometry) on Daudi cells: 142 pM

B6: Naratuximab IgG (parent CD37 IgG) (antibody, V domains shown)
VH: QVQVQESGPGLVAPSQTLSITCTVSGFSLTTSGVSWVRQPPGKGLEWLGVIWGDGSTNYHPSLKSRLSIKKDHSKSQVFLKLNSLTAADTATYYCAKGGYSLAHWGQGTLVTVSS
VL: DIQMTQSPSSLSVSVGERVTITCRASENIRSNLAWYQQKPGKSPKLLVNVATNLADGVPSRFSGSGSGTDYSLKINSLQPEDFGTYYCQHYWGTTWTFGQGTKLEIKR
[1]
  EC50 of ADCC (calcein release) on Ramos cells with primary human NK cells: 5.97 pM
  EC50 of ADCP on Ramos cells with THP-1 effector cells: 37.4 pM
  EC50 of CDC (PI+ cells) on Daudi cells with normal human serum: 450 pM

B7: Naratuximab × NKp46-1 H1L1 CD37/NKp46 bispecific MB (protein, part only; not given: Fab constants, linkers, ferritin, scFc, not shown: another chain or arm of the molecule; large carriers; small tags and cut ends)
VH 1: QVQLVQSGAEVKKPGSSVKVSCKASGYTFSDYVINWVRQAPGQGLEWMGEIYPGSGTNYYNEKFKAKATITADKSTSTAYMELSSLRSEDTAVYYCARRGRYGLYAMDYWGQGTTVTVSS
VL 1: DIQMTQSPSSLSASVGDRVTITCRASQDISNYLNWYQQKPGKAPKLLIYYTSRLHSGVPSRFSGSGSGTDFTFTISSLQPEDIATYFCQQGNTRPWTFGGGTKVEIK
VH 2: QVQVQESGPGLVAPSQTLSITCTVSGFSLTTSGVSWVRQPPGKGLEWLGVIWGDGSTNYHPSLKSRLSIKKDHSKSQVFLKLNSLTAADTATYYCAKGGYSLAHWGQGTLVTVSS
VL 2: DIQMTQSPSSLSVSVGERVTITCRASENIRSNLAWYQQKPGKSPKLLVNVATNLADGVPSRFSGSGSGTDYSLKINSLQPEDFGTYYCQHYWGTTWTFGQGTKLEIK
[2]
  Kd: < 1 pM
  koff: < 1e-07 s⁻¹
  kon: 3.65e+06 M⁻¹ s⁻¹
[1]
  EC50 of ADCC (calcein release) on Ramos cells with primary human NK cells: 0.316 pM
  EC50 of apoptosis (Annexin-V+ cells, flow cytometry) on Daudi cells: 54 pM

B8: Naratuximab × NKp46 09 CD37/NKp46 bispecific MB (protein, part only; not given: Fab constants, linkers, ferritin, scFc, not shown: another chain or arm of the molecule; large carriers; small tags and cut ends)
VH 1: EVQLQQSGAEVKKPGSSVKVSCKTSGYTFTEYSMHWVRQAPGKSLEWFGGISPNSGGTSYNQKFKGRATLTVDKSSSTAYMELSSLRSEDTAVYYCARRDFHSSFDYWGQGTTVTVSS
VL 1: DIVMTQSPATLSLSPGERATLSCRASQSISDYLHWFQQKPHESPRLLIKYASQSISGIPARFSGSGSGSDFTLTISSLEPEDFAVYYCQNGHSFPLTFGPGTKVDIK
VH 2: QVQVQESGPGLVAPSQTLSITCTVSGFSLTTSGVSWVRQPPGKGLEWLGVIWGDGSTNYHPSLKSRLSIKKDHSKSQVFLKLNSLTAADTATYYCAKGGYSLAHWGQGTLVTVSS
VL 2: DIQMTQSPSSLSVSVGERVTITCRASENIRSNLAWYQQKPGKSPKLLVNVATNLADGVPSRFSGSGSGTDYSLKINSLQPEDFGTYYCQHYWGTTWTFGQGTKLEIK
[2]
  Kd: < 1 pM
  koff: < 1e-07 s⁻¹
  kon: 1.63e+06 M⁻¹ s⁻¹
[1]
  EC50 of ADCC (calcein release) on Ramos cells with primary human NK cells: 0.843 pM

B9: Naratuximab × NKp46-4 H1L2 CD37/NKp46 bispecific MB (protein, part only; not given: Fab constants, linkers, ferritin, scFc, not shown: another chain or arm of the molecule; large carriers; small tags and cut ends)
VH 1: QVQLVQSGAEVKKPGASVKVSCKASGYTFTSFTMHWVRQAPGQGLEWIGYINPSSGYTEYNQKFKDRVTITADKSTSTAYMELSSLRSEDTAVYYCVRGSSRGFDYWGQGTLVTVSS
VL 1: DIQMTQSPSSLSASVGDRVTITCRASENIYSNLAWFQQKPGKAPKLLVYAATNLADGVPSRFSGSGSGTDYTLTISSLQPEDFATYYCQHFWGTPRTFGGGTKVEIK
VH 2: QVQVQESGPGLVAPSQTLSITCTVSGFSLTTSGVSWVRQPPGKGLEWLGVIWGDGSTNYHPSLKSRLSIKKDHSKSQVFLKLNSLTAADTATYYCAKGGYSLAHWGQGTLVTVSS
VL 2: DIQMTQSPSSLSVSVGERVTITCRASENIRSNLAWYQQKPGKSPKLLVNVATNLADGVPSRFSGSGSGTDYSLKINSLQPEDFGTYYCQHYWGTTWTFGQGTKLEIK
[2]
  Kd: 17.5 pM
  koff: 3.42e-05 s⁻¹
  kon: 1.96e+06 M⁻¹ s⁻¹
[1]
  EC50 of ADCC (calcein release) on Ramos cells with primary human NK cells: 0.777 pM
  EC50 of apoptosis (Annexin-V+ cells, flow cytometry) on Daudi cells: 73 pM

B10: Naratuximab × NKp46-2 H1L1 CD37/NKp46 bispecific MB (protein, part only; not given: Fab constants, linkers, ferritin, scFc, not shown: another chain or arm of the molecule; large carriers; small tags and cut ends)
VH 1: QVQLQESGPGLVKPSQTLSLTCTVSGYSISSDYAWNWIRQPPGKGLEWIGYITYSGSTSYNPSLESRVTISRDTSKNQFSLKLSSVTAADTAVYYCARGGYYGSSWGVFAYWGQGTLVTVSS
VL 1: DIQMTQSPSSLSASVGDRVTITCRVSENIYSYLAWYQQKPGKAPKLLVYNAKTLAEGVPSRFSGSGSGTDFTLTISSLQPEDFATYYCQHHYGTPWTFGGGTKVEIK
VH 2: QVQVQESGPGLVAPSQTLSITCTVSGFSLTTSGVSWVRQPPGKGLEWLGVIWGDGSTNYHPSLKSRLSIKKDHSKSQVFLKLNSLTAADTATYYCAKGGYSLAHWGQGTLVTVSS
VL 2: DIQMTQSPSSLSVSVGERVTITCRASENIRSNLAWYQQKPGKSPKLLVNVATNLADGVPSRFSGSGSGTDYSLKINSLQPEDFGTYYCQHYWGTTWTFGQGTKLEIK
[2]
  Kd: < 1 pM
  koff: < 1e-07 s⁻¹
  kon: 2.2e+06 M⁻¹ s⁻¹
[1]
  EC50 of ADCC (calcein release) on Ramos cells with primary human NK cells: 0.374 pM
  EC50 of apoptosis (Annexin-V+ cells, flow cytometry) on Daudi cells: 32 pM
